Reference: the supplement of paper PMC9112550, “Optimization of the antimicrobial peptide Bac7 by deep mutational scanning” (BMC Biology, 2022)

Test system: Escherichia coli TOP10
Experiment: shrunken log2 fold change of peptide-encoding DNA abundance (4.5 h post-induction vs induction); higher = less antimicrobial activity (less host growth inhibition)
Details: time post-induction: 4.5 h; library: site-saturation at positions 5, 18, 19, 20
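Note: peptides expressed intracellularly from a pBAD plasmid library in pooled LB shake-flask culture, induced with 0.3% L-arabinose, DNA abundance read by NGS, three biological replicates, DESeq2 with apeglm shrinkage.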

Sequence | shrunken log2 fold change
RRIRMRPPRLPRPRPRPSQTPRP | 0.38
RRIRKRPPRLPRPRPRPGEKPRP | 0.015
RRIRTRPPRLPRPRPRPMKCPRP | -0.0722
RRIRDRPPRLPRPRPRPNYHPRP | -0.359
RRIRSRPPRLPRPRPRPSTHPRP | -0.353
RRIRWRPPRLPRPRPRPQKAPRP | 0.123
RRIRIRPPRLPRPRPRPMLGPRP | -0.146
RRIRCRPPRLPRPRPRPISNPRP | -0.145
RRIRNRPPRLPRPRPRPLMKPRP | -0.431
RRIRLRPPRLPRPRPRPFVYPRP | -0.476
RRIRYRPPRLPRPRPRPLKRPRP | -0.234
RRIRMRPPRLPRPRPRPESEPRP | 3.39
RRIRMRPPRLPRPRPRPGEAPRP | 2.18
RRIRFRPPRLPRPRPRPYFMPRP | -1.02
RRIRARPPRLPRPRPRPGWEPRP | 0.274
RRIRERPPRLPRPRPRPKTCPRP | -0.267
RRIRERPPRLPRPRPRPHLCPRP | -0.101
RRIRHRPPRLPRPRPRPEMNPRP | -0.0935
RRIRVRPPRLPRPRPRPYHVPRP | -0.055
RRIRFRPPRLPRPRPRPLVDPRP | 0.0316
RRIRIRPPRLPRPRPRPVPLPRP | -0.442
RRIRMRPPRLPRPRPRPCCLPRP | 0.273
RRIRRRPPRLPRPRPRPQMYPRP | -0.183
RRIRIRPPRLPRPRPRPIANPRP | -0.0104
RRIRKRPPRLPRPRPRPMIQPRP | 0.195

Sequence | shrunken log2 fold change
RRIRPRPPRLPRPRPRPSFCPRP | 0.0813
RRIRYRPPRLPRPRPRPWRTPRP | -0.298
RRIRLRPPRLPRPRPRPEQDPRP | -0.125
RRIRERPPRLPRPRPRPRSYPRP | -0.0497
RRIRNRPPRLPRPRPRPWVKPRP | -0.0802
RRIRGRPPRLPRPRPRPMVSPRP | 0.313
RRIRLRPPRLPRPRPRPAAAPRP | 1.04
RRIRDRPPRLPRPRPRPKHLPRP | -0.0209
RRIRIRPPRLPRPRPRPYCLPRP | -0.259
RRIRERPPRLPRPRPRPRPVPRP | 0.114
RRIRGRPPRLPRPRPRPHDWPRP | 0.46
RRIRPRPPRLPRPRPRPETFPRP | 0.176
RRIRWRPPRLPRPRPRPEVIPRP | 0.0286
RRIRDRPPRLPRPRPRPECKPRP | 0.109
RRIRSRPPRLPRPRPRPLLCPRP | -0.039
RRIRNRPPRLPRPRPRPIAVPRP | -0.0167
RRIRGRPPRLPRPRPRPGNPPRP | 0.134
RRIRNRPPRLPRPRPRPGDPPRP | 0.306
RRIRIRPPRLPRPRPRPPCCPRP | -0.31
RRIRYRPPRLPRPRPRPGHVPRP | -0.59
RRIRFRPPRLPRPRPRPFSSPRP | -0.468
RRIRTRPPRLPRPRPRPMYPPRP | 0.0537
RRIRFRPPRLPRPRPRPTKEPRP | -0.0335
RRIRCRPPRLPRPRPRPQNCPRP | 0.137
RRIRLRPPRLPRPRPRPSNNPRP | -0.928

Sequence | shrunken log2 fold change
RRIRRRPPRLPRPRPRPGKQPRP | 0.254
RRIRHRPPRLPRPRPRPDYFPRP | 0.0294
RRIRWRPPRLPRPRPRPDYLPRP | -0.0223
RRIRMRPPRLPRPRPRPVRAPRP | 1.08
RRIRWRPPRLPRPRPRPIPWPRP | -0.0329
RRIRVRPPRLPRPRPRPWKMPRP | -0.148
RRIRYRPPRLPRPRPRPFDRPRP | -1.29
RRIRVRPPRLPRPRPRPSDHPRP | -0.0923
RRIRPRPPRLPRPRPRPMFKPRP | -0.0861
RRIRSRPPRLPRPRPRPSESPRP | -0.198
RRIRDRPPRLPRPRPRPHTQPRP | -0.455
RRIRYRPPRLPRPRPRPWHYPRP | -0.809
RRIRDRPPRLPRPRPRPLATPRP | 1.1
RRIRVRPPRLPRPRPRPSSRPRP | -0.231
RRIRVRPPRLPRPRPRPNWTPRP | 0.0136
RRIRNRPPRLPRPRPRPPSCPRP | -0.134
RRIRKRPPRLPRPRPRPDCPPRP | 0.178
RRIRRRPPRLPRPRPRPTKGPRP | 0.244
RRIRDRPPRLPRPRPRPWHYPRP | -0.225
RRIRRRPPRLPRPRPRPGVRPRP | 0.318
RRIRPRPPRLPRPRPRPSRPPRP | 0.133
RRIRDRPPRLPRPRPRPWVYPRP | -0.0138
RRIRERPPRLPRPRPRPYVAPRP | -0.72
RRIRARPPRLPRPRPRPFSMPRP | -0.215
RRIRQRPPRLPRPRPRPDCCPRP | -0.0188

Sequence | shrunken log2 fold change
RRIRWRPPRLPRPRPRPMCCPRP | 0.181
RRIRNRPPRLPRPRPRPPMFPRP | -0.0155
RRIRRRPPRLPRPRPRPEPPPRP | 1.02
RRIRSRPPRLPRPRPRPSAGPRP | 0.191
RRIRVRPPRLPRPRPRPQKLPRP | -0.0565
RRIRGRPPRLPRPRPRPSSGPRP | 0.0321
RRIRRRPPRLPRPRPRPYKFPRP | 0.0202
RRIRGRPPRLPRPRPRPDPCPRP | 0.624
RRIRVRPPRLPRPRPRPWSNPRP | -0.0426
RRIRFRPPRLPRPRPRPKIPPRP | -0.428
RRIRCRPPRLPRPRPRPAWHPRP | 0.182
RRIRHRPPRLPRPRPRPPSIPRP | -0.165
RRIRVRPPRLPRPRPRPHKVPRP | -0.331
RRIRTRPPRLPRPRPRPDTGPRP | -0.0906
RRIRDRPPRLPRPRPRPTEDPRP | -0.0699
RRIRQRPPRLPRPRPRPLMHPRP | -0.00724
RRIRQRPPRLPRPRPRPDTKPRP | -0.00171
RRIRHRPPRLPRPRPRPCVKPRP | -0.121
RRIRKRPPRLPRPRPRPVRLPRP | 0.203
RRIRFRPPRLPRPRPRPTDAPRP | 0.00734
RRIRIRPPRLPRPRPRPSTWPRP | -0.481
RRIRMRPPRLPRPRPRPNQLPRP | 0.0894
RRIRARPPRLPRPRPRPRQMPRP | 1.2
RRIRMRPPRLPRPRPRPQLNPRP | 0.158
RRIRERPPRLPRPRPRPHRQPRP | -0.0179

Sequence | shrunken log2 fold change
RRIRPRPPRLPRPRPRPWYPPRP | -0.119
RRIRHRPPRLPRPRPRPRCGPRP | 0.202
RRIRHRPPRLPRPRPRPYTPPRP | -1.32
RRIRHRPPRLPRPRPRPQLCPRP | 0.0716
RRIRHRPPRLPRPRPRPLLIPRP | -0.516
RRIRFRPPRLPRPRPRPCLRPRP | -0.205
RRIRGRPPRLPRPRPRPEIQPRP | 0.769
RRIRFRPPRLPRPRPRPIGDPRP | -0.033
RRIRCRPPRLPRPRPRPYPIPRP | -0.198
RRIRERPPRLPRPRPRPSFTPRP | -1.03
RRIRSRPPRLPRPRPRPFGFPRP | -0.137
RRIRIRPPRLPRPRPRPGAQPRP | -0.0304
RRIRRRPPRLPRPRPRPKYTPRP | -0.000338
RRIRHRPPRLPRPRPRPKNDPRP | -0.268
RRIRPRPPRLPRPRPRPDLLPRP | -0.0805
RRIRGRPPRLPRPRPRPMDSPRP | 0.318
RRIRVRPPRLPRPRPRPQKHPRP | -0.247
RRIRQRPPRLPRPRPRPVVMPRP | 0.0928
RRIRYRPPRLPRPRPRPDWTPRP | 0.0173
RRIRRRPPRLPRPRPRPIEPPRP | -0.015
RRIRVRPPRLPRPRPRPWVRPRP | 0.0573
RRIRYRPPRLPRPRPRPNFYPRP | -0.689
RRIRFRPPRLPRPRPRPTQAPRP | 0.442
RRIRGRPPRLPRPRPRPIVFPRP | 0.194
RRIRWRPPRLPRPRPRPYCIPRP | -0.179

Sequence | shrunken log2 fold change
RRIRMRPPRLPRPRPRPRYWPRP | -0.14
RRIRNRPPRLPRPRPRPACTPRP | -0.0652
RRIRWRPPRLPRPRPRPGDQPRP | 0.175
RRIRTRPPRLPRPRPRPMKSPRP | -0.203
RRIRMRPPRLPRPRPRPTFNPRP | -0.283
RRIRTRPPRLPRPRPRPTRKPRP | 0.443
RRIRKRPPRLPRPRPRPVQRPRP | 0.0869
RRIRIRPPRLPRPRPRPQVCPRP | 0.0108
RRIRLRPPRLPRPRPRPMGLPRP | 0.0182
RRIRHRPPRLPRPRPRPPQNPRP | 0.613
RRIRSRPPRLPRPRPRPADDPRP | 0.479
RRIRTRPPRLPRPRPRPPGKPRP | 0.129
RRIRNRPPRLPRPRPRPVVYPRP | -0.228
RRIRERPPRLPRPRPRPICKPRP | -0.215
RRIRRRPPRLPRPRPRPCLDPRP | -0.167
RRIRARPPRLPRPRPRPCFWPRP | 0.364
RRIRARPPRLPRPRPRPWYCPRP | -0.306
RRIRARPPRLPRPRPRPDNQPRP | 0.0635
RRIRRRPPRLPRPRPRPMLSPRP | 0.00534
RRIRSRPPRLPRPRPRPRENPRP | 0.468
RRIRYRPPRLPRPRPRPRCPPRP | -0.167
RRIRVRPPRLPRPRPRPQHWPRP | 0.171
RRIRCRPPRLPRPRPRPFMQPRP | -0.402
RRIRMRPPRLPRPRPRPWPHPRP | 0.512
RRIRDRPPRLPRPRPRPSEYPRP | -0.0118
